# US20180371083A1
# Columns and labels:
# [1] = target: human TIGIT expressed on cells (CHO-K1 transfectants; Jurkat over-expressing human TIGIT) (human) (UniProt Q495A1); assay: cell-based or functional assay
# [2] = target: human TIGIT-His protein (extracellular domain of human TIGIT fused to His tag) (human) (UniProt Q495A1); assay: SPR, Biacore T200; antibody captured on anti-mouse IgG, human TIGIT-His as analyte; 1:1 Langmuir fit
# Chain of human TIGIT-His protein (extracellular domain of human TIGIT fused to His tag) (human) (Q495A1 25-141 limits assumed): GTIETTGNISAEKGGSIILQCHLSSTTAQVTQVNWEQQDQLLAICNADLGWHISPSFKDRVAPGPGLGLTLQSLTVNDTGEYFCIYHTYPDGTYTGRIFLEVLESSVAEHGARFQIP
# Chain of human TIGIT expressed on cells (CHO-K1 transfectants; Jurkat over-expressing human TIGIT) (human) (Q495A1 25-244): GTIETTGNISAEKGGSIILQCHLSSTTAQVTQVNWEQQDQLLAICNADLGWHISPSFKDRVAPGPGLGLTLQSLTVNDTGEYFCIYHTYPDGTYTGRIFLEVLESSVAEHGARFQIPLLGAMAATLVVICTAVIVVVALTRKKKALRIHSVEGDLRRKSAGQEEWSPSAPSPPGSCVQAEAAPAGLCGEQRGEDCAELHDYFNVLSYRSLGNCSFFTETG
substance,measurement,setting,value
"commercial anti-hTIGIT antibody, clone MBSA43 (eBioscience Cat#12-9500-42)","EC50, rescue of IL-2 in hTIGIT-Jurkat / THP-1 co-culture with CD155-Fc or CD112-Fc",[1],0.23 µg/mL
same,Kd,[2],0.0363 nM
